Experimental findings from paper PMC10846083 are described below.

For series [1], the target named is T1, MqsA (Escherichia coli K-12 MG1655) (UniProt Q46864).
T1 sequence: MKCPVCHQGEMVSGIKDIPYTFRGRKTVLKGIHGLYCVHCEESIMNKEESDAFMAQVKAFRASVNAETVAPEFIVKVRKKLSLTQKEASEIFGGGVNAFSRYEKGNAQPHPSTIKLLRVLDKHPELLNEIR
The series is described as follows: EMSA. The conditions noted are these: EMSA: 0.25 pmol biotin probe, MqsA titration, 6% polyacrylamide gel in TBE, buffer not given, footprinting: 200 ng FAM probe, 30 min, 25 C. (In general: Mobility shift assays separate free from complexed probe on a gel.)

Series [2] deals with T1, MqsA (Escherichia coli K-12 MG1655). Description: DNase I footprinting. Particulars: EMSA: 0.25 pmol biotin probe, MqsA titration, 6% polyacrylamide gel in TBE, buffer not given, footprinting: 200 ng FAM probe, 30 min, 25 C.

Take “CTGGCGTATGAGGTAATAAAGCGCGTTTGGGAAGGTGAAATGTTGCTGGTAAATGATTCGGAGTCAGCGGGGGAAGGTGTCGGTGCGGATGCCTGACCTGTGGATATAGCGGTTAAAACCTTCACCGGCGTCCGGTTCAAAGTTCCATGCCCGCCAACCATCCGACCTTCGGCATCACGAACTATCAGGCGGACGTGAATGCCCTGGTTTGTGTCAATGTTAATGTCGGTGATACCGGCAGATACCAGTGGCCCTGCTACGCAATC (double strand) [lfgA promoter mutant probe 2 (MP2)]”: the binding result in series [1] is “no binding”.

In the case of “CTGGCGTATGAGGTAATAAAGCGCGTTTGGGAAGGTGAAATGTTGCTGGTAAATGATTCGGAGTCAGCGGGGGAAGGTGTCGGTGCGGATGCCTGACCTGTGGATATAGCGGTTAAAACCTTCTTTTGCGTCATTATCAAAGTTCCATGCCCGCCAACCATCCGACCTTCGGCATCACGAACTATCAGGCGGACGTGAATGCCCTGGTCGTCTTCAATGTTAATGTCGGTGATACCGGCAGATACCAGTGGCCCTGCTACGCAATC (double strand) [lfgA promoter mutant probe 1 (MP)]”, the binding result in series [1] was “binds”.

Turning to “GATTGCGTAGCAGGGCCACTGGTATCTGCCGGTATCACCGACATTAACATTGAAGACGACCAGGGCATTCACGTCCGCCTGATAGTTCGTGATGCCGAAGGTCGGATGGTTGGCGGGCATGGAACTTTGAACCGGACGCCGGTGAAGGTTTTAACCGCTATATCCACAGGTCAGGCATCCGCACCGACACCTTCCCCCGCTGACTCCGAATCATTTACCAGCAACATTTCACCTTCCCAAACGCGCTTTATTACCTCATACGCCAG (double strand) [FAM-lfgA (yfjY) promoter footprint probe]”, the binding result in series [2] is “binds”.

For “GATTGCGTAGCAGGGCCACTGGTATCTGCCGGTATCACCGACATTAACATTGAAGACGACCAGGGCATTCACGTCCGCCTGATAGTTCGTGATGCCGAAGGTCGGATGGTTGGCGGGCATGGAACTTTGAACCGGACGCCGGTGAAGGTTTTAACCGCTATATCCACAGGTCAGGCATCCGCACCGACACCTTCCCCCGCTGACTCCGAATCATTTACCAGCAACATTTCACCTTCCCAAACGCGCTTTATTACCTCATACGCCAG (double strand) [lfgA (yfjY) promoter WT probe]”, the binding result in series [1] was “binds”.
